Experimental data published in publication PMC10160006 (Nature chemical biology, 2023).
Each block holds one binder with its values, some of them ahead of it.

B1: human EXT2 (residues 46-718), fusion tags removed by TEV protease (enzyme, UniProt Q93063 46-718, looked up)
chain: WPHSIESSNDWNVEKRSIRDVPVVRLPADSPIPERGDLSCRMHTCFDVYRCGFNPKNKIKVYIYALKKYVDDFGVSVSNTISREYNELLMAISDSDYYTDDINRACLFVPSIDVLNQNTLRIKETAQAMAQLSRWDRGTNHLLFNMLPGGPPDYNTALDVPRDRALLAGGGFSTWTYRQGYDVSIPVYSPLSAEVDLPEKGPGPRQYFLLSSQVGLHPEYREDLEALQVKHGESVLVLDKCTNLSEGVLSVRKRCHKHQVFDYPQVLQEATFCVVLRGARLGQAVLSDVLQAGCVPVVIADSYILPFSEVLDWKRASVVVPEEKMSDVYSILQSIPQRQIEEMQRQARWFWEAYFQSIKAIALATLQIINDRIYPYAAISYEEWNDPPAVKWGSVSNPLFLPLIPPQSQGFTAIVLTYDRVESLFRVITEVSKVPSLSKLLVVWNNQNKNPPEDSLWPKIRVPLKVVRTAENKLSNRFFPYDEIETEAVLAIDDDIIMLTSDELQFGYEVWREFPDRLVGYPGRLHLWDHEMNKWKYESEWTNEVSMVLTGAAFYHKYFNYLYTYKMPGDIKNWVDAHMNCEDIAMNFLVANVTGKAVIKVTPRKKFKCPECTAIDGLSLDQTHMVERSECINKFASVFGTMPLKVVEHRADPVLYKDDFPEKLKSFPNIGSL
modifications: N-glycan on Asn637
B3: human EXT1 (residues 28-746), fusion tags removed by TEV protease (enzyme, UniProt Q16394 28-746, looked up)
chain: FRASRSHSRREEHSGRNGLHHPSPDHFWPRFPDALRPFVPWDQLENEDSSVHISPRQKRDANSSIYKGKKCRMESCFDFTLCKKNGFKVYVYPQQKGEKIAESYQNILAAIEGSRFYTSDPSQACLFVLSLDTLDRDQLSPQYVHNLRSKVQSLHLWNNGRNHLIFNLYSGTWPDYTEDVGFDIGQAMLAKASISTENFRPNFDVSIPLFSKDHPRTGGERGFLKFNTIPPLRKYMLVFKGKRYLTGIGSDTRNALYHVHNGEDVVLLTTCKHGKDWQKHKDSRCDRDNTEYEKYDYREMLHNATFCLVPRGRRLGSFRFLEALQAACVPVMLSNGWELPFSEVINWNQAAVIGDERLLLQIPSTIRSIHQDKILALRQQTQFLWEAYFSSVEKIVLTTLEIIQDRIFKHISRNSLIWNKHPGGLFVLPQYSSYLGDFPYYYANLGLKPPSKFTAVIHAVTPLVSQSQPVLKLLVAAAKSQYCAQIIVLWNCDKPLPAKHRWPATAVPVVVIEGESKVMSSRFLPYDNIITDAVLSLDEDTVLSTTEVDFAFTVWQSFPERIVGYPARSHFWDNSKERWGYTSKWTNDYSMVLTGAAIYHKYYHYLYSHYLPASLKNMVDQLANCEDILMNFLVSAVTKLPPIKVTQKKQYKETMMGQTSRASRWADPDHFAQRQSCMNTFASWFGYMPLIHSQMRLDPVLFKDQVSILRKKYRDIERL
modifications: NAG at Asn330

Legend:
[1] = target: B3; assay: cryo-EM structure
[2] = target: T1, EXT1-pGEn1 (human EXT1 residues 28-746 with N-terminal His8 and StrepII tag) (human, UniProt Q16394 28-746); assay: SEC-MALS
T1 sequence (looked up): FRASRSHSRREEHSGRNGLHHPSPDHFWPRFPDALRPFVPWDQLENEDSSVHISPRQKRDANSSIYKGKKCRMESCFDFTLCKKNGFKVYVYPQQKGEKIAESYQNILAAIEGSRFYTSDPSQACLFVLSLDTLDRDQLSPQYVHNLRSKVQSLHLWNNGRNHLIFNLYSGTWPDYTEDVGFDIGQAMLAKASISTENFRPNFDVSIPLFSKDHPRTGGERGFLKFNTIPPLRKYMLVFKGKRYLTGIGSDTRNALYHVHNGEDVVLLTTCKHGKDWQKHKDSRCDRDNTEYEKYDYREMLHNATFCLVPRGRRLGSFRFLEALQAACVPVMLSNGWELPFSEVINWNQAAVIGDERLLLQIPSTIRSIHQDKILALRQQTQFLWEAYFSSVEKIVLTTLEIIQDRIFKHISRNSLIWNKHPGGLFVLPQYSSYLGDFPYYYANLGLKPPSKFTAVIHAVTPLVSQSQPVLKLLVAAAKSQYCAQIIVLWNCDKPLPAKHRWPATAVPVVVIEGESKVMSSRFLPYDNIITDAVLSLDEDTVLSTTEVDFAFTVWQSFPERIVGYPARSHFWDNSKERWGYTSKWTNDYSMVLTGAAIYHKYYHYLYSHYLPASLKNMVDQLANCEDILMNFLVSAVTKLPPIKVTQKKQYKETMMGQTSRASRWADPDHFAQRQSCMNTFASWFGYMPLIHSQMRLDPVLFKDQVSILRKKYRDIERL

[3] = target: B1; assay: cryo-EM structure

Binder: B1
- binding result [1]: binds

- binding result [2]: binds
B2: EXT2-pGEn2 (human EXT2 residues 46-718 with N-terminal His8, AviTag and GFP) (enzyme, UniProt Q93063 46-718, looked up)
chain: WPHSIESSNDWNVEKRSIRDVPVVRLPADSPIPERGDLSCRMHTCFDVYRCGFNPKNKIKVYIYALKKYVDDFGVSVSNTISREYNELLMAISDSDYYTDDINRACLFVPSIDVLNQNTLRIKETAQAMAQLSRWDRGTNHLLFNMLPGGPPDYNTALDVPRDRALLAGGGFSTWTYRQGYDVSIPVYSPLSAEVDLPEKGPGPRQYFLLSSQVGLHPEYREDLEALQVKHGESVLVLDKCTNLSEGVLSVRKRCHKHQVFDYPQVLQEATFCVVLRGARLGQAVLSDVLQAGCVPVVIADSYILPFSEVLDWKRASVVVPEEKMSDVYSILQSIPQRQIEEMQRQARWFWEAYFQSIKAIALATLQIINDRIYPYAAISYEEWNDPPAVKWGSVSNPLFLPLIPPQSQGFTAIVLTYDRVESLFRVITEVSKVPSLSKLLVVWNNQNKNPPEDSLWPKIRVPLKVVRTAENKLSNRFFPYDEIETEAVLAIDDDIIMLTSDELQFGYEVWREFPDRLVGYPGRLHLWDHEMNKWKYESEWTNEVSMVLTGAAFYHKYFNYLYTYKMPGDIKNWVDAHMNCEDIAMNFLVANVTGKAVIKVTPRKKFKCPECTAIDGLSLDQTHMVERSECINKFASVFGTMPLKVVEHRADPVLYKDDFPEKLKSFPNIGSL

Binder: B3
- stoichiometry N [3]: 1 EXT1:EXT2
